Results: the DeepSol protein solubility set

Test: soluble on expression in E. coli; label from the status in PepcDB or PDB records

Row | Sequence | soluble on expression in E. coli
1 | MGSDKIHHHHHHMEFQLDKDWRLQPIKGATGQTYMGIKETEKVFIKRNTSPLLAALSKEGLAPKMIWTKRTANGDVLTAQEWLEGRLLHADEIGKRNDVIDVLYQLHHSNLLKDMLKKIGGEVCTPLTMLKEYKRQLPKELKRNSYLKEVITYLYNHLPEYPETSYVAVHGDVNHRNWLVSNNYLYLVDWDSVMVADPAVDLGMILSHYVPRSGWNQWLLSYGLIPNESTVQRIYWYGLFSFLQEIVRHHQEGERRAMTAEILQLKRMFSI | not soluble
2 | MPGLLLCEPTELYNILNQATKLSRLTDPNYLCLLDVRSKWEYDESHVITALRVKKKNNEYLLPESVDLECVKYCVVYDNNSSTLEILLKDDDDDSDSDGDGKDLVPQAAIEYGRILTRLTHHPVYILKGGYERFSGTYHFLRTQKIIWMPQELDAFQPYPIEIVPGKVFVGNFSQACDPKIQKDLKIKAHVNVSMDTGPFFAGDADKLLHIRIEDSPEAQILPFLRHMCHFIEIHHHLGSVILIFSTQGISRSCAAIIAYLMHSNEQTLQRSWAYVKKCKNNMCPNRGLVSQLLEWEKTILGDSITNIMDPLY | soluble
3 | MSVAEFDADVIVDARDCIMGRVASQVAEQALDGETVAVVNAERAVITGREEQIVEKYEKRVDIGNDNGYFYPKRPDGIFKRTIRGMLPHKKQRGREAFESVRVYLGNPYDEDGEVLDGTSLDRLSNIKFVTLGEISETLGANKTW | soluble
4 | MAHHHHHHMKPSQPSYDKRAYQTIYPQYLDAELTPHDGRRLTRTQAVDDPTTNEVVEALKELGYTDIFVEPSASFPRSQGSIKYIMPPKGCVKVAIKRPKGEHYIPKSDFDTQTRGVTVEDIPNKMELLRRVSALIKIQHALKKQAEAAAASQTANTRKK | soluble
5 | MSIRIIPQDELGSSEKRTADMIPPLLFPRLKNLYNRRAERLRELAENNPLGDYLRFAALIAHAQKVVLYDHPLEMDLTARIKEASAQGKPPLDIHVLPRDKHWQKLLMALIAELKPEMSGPALAVIENLEKASTQELEDMASALFASDFSSVSSDKAPFIWAALSLYWAQMANLIPGKARAEYGEQRQYCPVCGSMPVSSMVQIGTTQGLRYLHCNLCETEWHVVRVKCSNCEQSGKLHYWSLDDEQAAIKAESCDDCGTYLKILYQEKEPKVEAVADDLASLVLDARMEQEGYARSSINPFLFPGEGE | not soluble
6 | MSLGADRSAPMTARIDQLLLERLKSAGVEPAPAADDGEFLRRAYLDLSGTIPPVAITRDYLADSSPAKRRQLIERLLASPAFASHLASTWREIILKPTDDFQQLQNQFALQAWLREQFSENARYDRIVEQFITASSEQDGPVYFYDALDLKPEQLAAETSRIFLGLHIQCAECHDHPFDDWKQRDFWGYAAFFARVAKRDSAMGRISLVDQEMGEVKIPESEETVAPLYPGGSAPSDRFGGTRRQKLAVWMVARDNPYTARRAVNWAWAHLFGRGLVEPVDDLSPLNAPSHPALMEELTQYFIDSGYDLRQLLRTLAMTDAYARSSQNVDGQRPELFANMAIKSLSPEQLYDAILRLGLIRETVGDLSSQAPQPFDRSQQRLQFVARMRTVSLDRTDFETGAPQALALMNGPPVSLATAPETSGFLKSLEAPFFSDEQRVELIALAAYSRQPTAEERQRFSEYLATASPNEKKQALGDLLWAVAASAEFMLNEGHHHHHH | not soluble
7 | MKYPFYYCCDNLDIKSISVIGDFNNWDGGKNILKRHDDGTWMTEIELSPGKYRYKFLINDSILFNDPNALIYTYDDKGGTASFIIIDESNKRIINTKPASLNIESYSFLSVDKELSYCENGERKCYKDKHSSIMLKIGFSDITGLHTVNAIWYAPNNEIHEIQESVLNDGEKNENRKNEALFQININDDTIAGEWKLQIFINGSLALEDSFTVELKQPEVLDKTALDDAAMLSADLEVPDFLIEEDMQNEFEAPEFEVESNLQTNAEKEEISEEDLLGLFDDIKEIDMPEKDTSGNQKTPAPDETEMPADGNIMNLFDEIRISELKDEKAQDTENNTESTSKEAEESDSAIDELLELREFIDSSQNSEKDSIESSGGKSGEEANEEDISDIFIDIKNRTD | not soluble
8 | PDGDFVDLAWSEDPHQARHKPRLVVFHGLEGSLHSPYAHGLIHAAMQRGWLGVVMHFRGCSGEPNRNHRIYHSGETEDGTWFLHWLKREFGPAPTAAVGYSLGGNMLGCLLAEEGDRCPLDAAVIVSAPFMLEACSYHMDKGFSRVYQRYLLNLLKANASRKLKAYPGSLPVDLRQLKGMRRIREFDDMITAKIHGFADALDYYRQCSAMPRLSDITKPTLIIHAKDDPFMDHHSIPPQEQLPANVEYQLTEQGGHVGFVSGTLRKPEMWLERRIPDWLNRWLE | not soluble
9 | MLDVKSQDISIPEAVVVLCTAPDEATAQDLAAKVLAEKLAACATLLPGATSLYYWEGKLEQEYEVQMILKTTVSHQQALIDCLKSHHPYQTPELLVLPVTHGDTDYLSWLNASLR | not soluble
10 | MNTLSSLLLALQQADSFFPGGAVAWSWGLETLVADGRLGAGERVTARRRQRAVRLDRSAAVRGFVEGQLRHRWHSFDRVFLLAAWNAADDVSALTNLDAQIEALTLAKELRQGSRRVGQALLGVHVALGTPGAAAYQQQVRAGNTPGHLPVLQGLLWNRLGMHREHCQLAAAHGLCTGLVSAAVRLGVMGHIDAQRVLTDIQPLITELLALEPPEPEDACGFTPMAEIAVMRHETQDLRLFANLEHHHHHH | soluble
11 | MGSDKIHHHHHHMSLPETPTIRIGMAMWSHPGWKTVFPGLDAEARLTAYSRVFGTVEGNTSFYALPSAQQVSIWQRATPEDFRFTFKLPRRITHELSLRNCREEVLQFFRLFEPLMAKTGVWKIQLPARFGPESLSVLTQFLSLLPEGIGLGVEVRHRAFFAKGEAEKDFNRLLMDKGINRIIMDTRPVFALPAINEAITDAHQKKPRVPVHPLATGAHPVVRFIAQPHTPAAWGPGGKPADLGCADNLAFFAPWLGKLAGWLAEGRSPYLFIHTPDNSDAPLLASELAKQVAAHLQALHPGLPIPSVMLDSAESDGGQIGLGLQ | not soluble
12 | MKTPQGNTSASRREVDTSMRNRFEFAGSSLRDRIGSILSMDQTPRPATRANIFMGRTPTPARHLPESRRMFVPDYTSTPAPTAPRQEFRFEDLSRIVAPPIEQTFIQLDSDGELTLPAESSIAVSPPPRPSSEPLRHLSQVSLSARPASTEPVRRDVHWRVHPSAKIRKCTVPKTPSFARPTKSWLNRVNRED | not soluble
13 | MSTKMTPPVEKNEFIDVVFEDLTHDGAGVAKVKGYPIFVKNGLPGEEAQIKIIKVKKNFAFGRLMKLHTESPYRKDAECPVYNQCGGCQLQHLTYEGQLQAKEKQVRDVMQRIGGLADVPVHPVLGMKNPWVYRNKAQVPIGEREGGLVAGFYRQGTHDIINMESCLIQAEENDTLIQEVKRICEKHGITAYNEERNKGTLRHVMARYGQVTGEIMLVFITRTAELPNKKAIIEEIAAKFPEVKSIVQNVNTKRTNVIFGDKTTVLYGSEYIYDFIGDIKFAISARSFYQVNPEQTKVLYDKTLEYAKLNGNETVIDAYCGIGSISLFLAQKAKKVYGVEIVPEAIEDANRNAALNNMTNAEFGVGEAEVVIPKWYKEGVIADTMVVDPPRKGCDEALLNTIIDMKPNRVVYVSCNPATLARDLKVLEEGGYKTQEVQPVDMFPHTTHVECVAWLKLV | not soluble
14 | MSNTMQGAHYPQMAFDPTWQMHPAYATATAFNPYNVSFDFTRSPNTSGGSDESMSDGSKIDPKRSPKYLEKRMKNNEAAKKSRASRKHREQKNQTENELLKRKNAALEEELKQAKCELAQMQITIRDMSIEREAYRRENEMLKMVNNKFADSKFEPPQPLRDMTNCNLPYKYELLS | not soluble
15 | MSLEEIETDVLVIGGGPGGMSAAINAGKYGAKVLLVDENPFLGGQLVKQTHRFFGSAKERAGTRGIKIAGILEEELNSIENVEVRRETRVFGIYNGEAGAYQRLNDDEGKLLRIKAKKIVVATGAYERTLIFENNDLPGVYGAGGVQTLMNVYGIKPGNMGLIVGSGNVGLILTYQLMQAGVNVAAIVEAMPRIGGYFVHAAKVRRLGVPIYVRHTILKAIGRKSVEGAVIAQLDDRWQPIPGTEKEIKCDFICVAVGLSPTHELLYQAGCEMKFVPELGGIVPLRTRFNETSVKGLYVAGDVAGIEEATAAIMEGRIAGIHAAVTLGYGGEEAKKELDEAVKEIEEFRAGPFGERIVCGLEKCTLESEGHHHHHH | soluble
